Results published in patent US20100203150A1, “Novel amphiphilic copolymers and fabrication method thereof” (priority 2009, published 2010).

Experiment: Solubility in common solvents and co-solvents
Details: some common organic solvents and co-solvents

5′-deoxy-5-fluorouridine-poly(ε-caprolactone) [5′-DFUR-PCL]
solubility: soluble
